Positions count from the first letter of the chain named. “And” between values parts separate entries of the source, which are not always exact repeats. Identical values can stand only once.
B1: mouse anti-human IL-23p19 antibody 7D7 (antibody, V domains shown)
VH: QVQLQQSGAELAKPGASVKLSCKASGYTFTNYWMDWVKQRPGQGLEWIGYINPSSGYVEYNQKFKYKATLTADKTSSTAYMQLSSLTYDDSAVYYCARSPPYYYANTYWSFDVWGTGTTVTVSS
VL: DIGLTQSPASLAVSLGQRATISCRASKSVSTSGYSFMHWYQQKPGQPPKLLIYLASNLESGVPARFSGSGSGTDFILNIHPVEEEDAATYYCQHSRELPLAFGAGTKLELTP
notes: also called m7D7
B2: mouse anti-human IL-23p19 antibody 14A3 (antibody, V domains shown)
VH: EVILVESGGGFVKPGGSLKLSCAASGFTFSNYGMSWVRQTPDKGLEWVATISTGGRYIYYSDTVKGRFTISRDNAKSTLYLKMSSLRSEDTAVHFCARHEGDRYYGWYFDVWGAGTTVTVSS
VL: DIVLTQSPASLAVSLGQRATISCKASQSVDYDGESYMNWYQQKPGQPPKLLIYTSSSLASGIPARFSGSGSGTNFTLNIHPVEEEDAATYCCQQGNEDLFTFGSGTKLEIKR
B3: mouse anti-human IL-23p19 antibody 12C11 (antibody, V domains shown)
VH: EVMLVESGGGLVKPGGSLKLSCAASGFTFSNYGMSWVRQSPERGLEWVATISTGGRYTFYSDTVKGRFTISRDNARNTLYLKMSSLISEDTAVHYCARHEGDTYYGWYFDVWGAGTTVTVSS
VL: B2 VL with Q27H, G33V, E34D, Y36F, Y53F, T54A, A59E, T76I, C91Y
B4: mouse anti-human IL-23p19 antibody 7G10 (antibody, V domains shown)
VH: EVQLQQSGPELVKPGASVKMSCKASGYTFTSNVMHWVKQKPGQGLEWIGYINPYNDGTKYNEKFKGKATLTSDKSSSTAYMELSSLTSEDSAVYYCARNWDVAYWGQGTLVTVSA
VL: DIVMTQSPATLSVTPGDRVSLSCRASQSISDYLHWYRQKSHESPRLLIKYASQSISGIPSRFSGSGSGSDFTLSINSVEPEDVGVYYCQNGHSFPFTFGSGTKLEIKR
B5: mouse anti-human IL-23p19 antibody 3C4 (antibody, V domains shown)
VH: QVQLQQSGGELARPGASVKLSCKASGYTFTSYGIKWVKQRFGQGLEWIGEIFPRGGNTYYNEKFKGKATLTADKSSSTAYMELRSLTSEDSAVYFCTANWDLDYWGQGTTLTVSS
VL: B4 VL with R37Q, P80S, E105K
B6: mouse anti-human IL-23p19 antibody 13F11 (antibody, V domains shown)
VH: B4 VH with Y27H, F29L, S31R, N32Y, V33L, K38Q
VL: B4 VL with S28T, R37Q, D70H
notes: also called m13F11
B7: mouse anti-human IL-23p19 antibody 20H7 (antibody, V domains shown)
VH: B5 VH with V2A, S31N, F41T, G55S, N57Q, Y59I, S88F, T97A, T110I
VL: B4 VL with V3M, Y87F, F96Y, S100G
B8: mouse anti-human IL-23p19 antibody 2G12 (antibody, V domains shown)
VH: B4 VH with S31C, N32C, V33I, M34L, S77R, N99R, V102E
VL: B4 VL with D31A, R37Q, V85I
B9: mouse anti-human IL-23p19 antibody 17G8 (antibody, V domains shown)
VH: B5 VH with V2A, G9S, F41T, G55S, N57Q, Y59I, K63N, T97A, T110I
VL: B4 VL with V3M, V85I, F96Y, S100G
B10: mouse anti-human IL-23p19 antibody 15G2 (antibody, V domains shown)
VH: EVQLQQSGPELVKPGASVKMSCKASGYTFTNYLMHWVKQKPGQGLEWIGYINPYNDGTNYNEKFKGKATLTSDKSSSTAYMELSSLTSEDSAIYFCTSNWDLDYWGQGTTLTVSS
VL: B4 VL with R37Q, T72I, S74N, F96Y, S100G
B11: mouse anti-human IL-23p19 antibody 33B12 (antibody, V domains shown)
VH: QVQLQQSGAELARPGASVKLSCKASGYTFTSYSLKWVKQRTGQGLEWIGEIHPRSGNTHYNEKFKGKATLTADKSSSTAYMDLRSLTSEDSAVYFCATNWDLGYWGQGTTITVSS
VL: B4 VL with M4L, Y36F, R37Q, K39R
notes: also called m33B12
B12: mouse anti-human IL-23p19 antibody 18E1 (antibody, V domains shown)
VH: B10 VH with Y27N, N31R, L33V, H35N, S77T, I93V, F95Y, T97V, S98H
VL: B4 VL with D31H, H34Y, R37Q, V85M, F96Y, S100G
B13: mouse anti-human IL-23p19 antibody 20A4 (antibody, V domains shown)
VH: B5 VH with V2A, R40G, F41T, G55S, N57Q, T97A, A98S, T110I
VL: B4 VL with Y32F, A51V, E79D, F96Y, S100G
B14: mouse anti-human IL-23p19 antibody 8E9 (antibody, V domains shown)
VH: EVQLQQSGPELVKPGASVKMSCKASGYTFTAYLIHWVKQSHGKSLEWIGYINPNNGGTNYNQKFKDKATLTVNKSSATAYMELRSLTSEDSAVFYCSSNWDLDYWGRGTTLTVSS
VL: B4 VL with S30G, R37Q, S40L, Q53R, D70Y, P80A, Y87F
B15: mouse anti-human IL-23p19 antibody 1D6 (antibody, V domains shown)
VH: EVQLQQSGPDLVKPGASVKMSCKASGYTFTAYLIHWVKRSHGKSLDWIGYINPNDGVTSYNQKFKGKATLTVNKSSGTAYMELRSLTSEDAAVYYCTLNWDLDYWGQGTTLTVSS
VL: B4 VL with R37Q, N76T, S77N, V85I
B16: mouse anti-human IL-23p19 antibody 2C6 (antibody, V domains shown)
VH: B10 VH with N31R, M34I, I51V, K65R, I93V, F95Y, D103N
VL: B4 VL with H34Y, R37Q, Y87F
B17: mouse anti-human IL-23p19 antibody 3D7 (antibody, V domains shown)
VH: QVQLQQSGPELVKPGASVKISCKASGYSFTSYYIHWVKQRPGQGLEWIGWIFPGSGNTKYNEKFKGKATLTADTSSTTAYMQLSSLTSEASAVYFCAREGLHYFGLYAMDYWGHGTSVTVSS
VL: DIQMTQTTSSLSASLGDRVTISCSASQGISNYLNWFQQKPDGTVKLLIYYTSSLHSGVPSRFSGSGSGTDYSLTISNLEPEDIATYYCQQYSKLPYTFGGGTKLEIKR
notes: also called m3D7
B18: mouse anti-human IL-23p19 antibody 49A10 (antibody, V domains shown)
VH: EVQLQQSGPELVKPGASVKISCKASGYTFTDYYMNWVKQSHGKSLEWFGDINPNNGDTSYNQKFKGKATLTVDKSSSTAYMELRSLTSEDSADYYCARPHYRNWYFDVWGTGTTVIVSS
VL: DIVLTQSPASLVVSLGQRATISCRASKSVSTSGYSFLNWYQQKPGQPPKLLIYLASNLESGVPARFSGSGSGTDFTLNIHPVEAEDATTYYCQHSRELPLTFGSGTKLEMKR
notes: also called m49A10
B19: mouse anti-human IL-23p19 antibody 16F7 (antibody, V domains shown)
VH: EVQLVESGGDLVKPGGSLKLSCAASGFIFNSYGMSWVRQTPDKRLEWVATISSGGRNTYYPDSVKGRFTISRDNAKNTLYLQMSSLKSEDTAMYYCARQGGYEGYVDVWGIGTTVTVSS
VL: DIVMTQSHRFMSTSVGDRVSITCKASQDVSSAVAWYQQKPGQSPNLLIYSASFRNTGVPDRFTGSGSGTDFTFTISGVQAEDLAVYYCQQHHSTPLTFGAGTKLELKR

Key:
[1] = target: T1, "Elastikine" human IL-23 (single chain FLAG-tag:GLU-tag:human p40:elasti-linker:human p19, expressed in 293T … (human, UniProt P29460 23-328)); experiment: KinExA, solution equilibrium
Protocol: The equilibrium dissociation constant (Kd) for anti human IL-23 antibodies is determined using the KinExA 3000 instrument. Sapidyne Instruments Inc., Boise Id., USA KinExA uses the principle of the Kinetic Exclusion Assay method based on measuring the concentration of uncomplexed antibody in a mixture of antibody, antigen and antibody-antigen complex. The concentration of free antibody is measured by exposing the mixture to a solid-phase immobilized antigen for a very brief period of time. In practice, this is accomplished by flowing the solution phase antigen-antibody mixture past antigen-coated particles trapped in a flow cell. Data generated by the instrument are analyzed using custom software. Equilibrium constants are calculated using a mathematical theory based on the following assumptions:
98 micron PMMA particles (Sapidyne, Cat No. 440198) are coated with biotinylated rhIL-23 according to Sapidyne “Protocol for coating PMMA particles with biotinylated ligands having short or nonexistent linker arms”. To make biotinylated rhIL-23, EZ-link TFP PEO-biotin (Pierce, Cat. No. 21219) is used according to manufacturer's recommendations (Pierce bulletin 0874). Experimental procedures are done according to the KinExA 3000 manual.
KinExA experiments are performed essentially as described at Example 3 of U.S. Patent Application Publication No. 2007/0048315.

[2] = target: T2, "Non-linked" human IL-23 (human p40 coexpressed in 293T cells with human p19:FLAG-tag peptide) (human, UniProt P29460 23-328); experiment: cell-based or functional assay
T2 sequence 1: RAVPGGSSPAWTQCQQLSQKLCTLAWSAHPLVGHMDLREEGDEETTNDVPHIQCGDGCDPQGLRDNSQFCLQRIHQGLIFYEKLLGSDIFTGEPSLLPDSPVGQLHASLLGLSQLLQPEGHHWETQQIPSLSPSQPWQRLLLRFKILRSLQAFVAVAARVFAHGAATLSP
T2 sequence 2: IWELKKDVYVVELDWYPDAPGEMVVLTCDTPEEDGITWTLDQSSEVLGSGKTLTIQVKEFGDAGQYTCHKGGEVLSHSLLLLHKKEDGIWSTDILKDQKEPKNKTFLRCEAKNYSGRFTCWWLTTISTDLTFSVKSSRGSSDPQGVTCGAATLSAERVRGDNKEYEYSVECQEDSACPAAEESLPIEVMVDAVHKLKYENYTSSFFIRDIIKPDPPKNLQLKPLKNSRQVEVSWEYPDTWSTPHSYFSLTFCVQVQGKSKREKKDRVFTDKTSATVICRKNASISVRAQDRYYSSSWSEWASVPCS

[3] = target: T3, human IL-23 (form not stated) (human, UniProt P29460 23-328); experiment: cell-based or functional assay
T3 sequence 1: T2 sequence 1
T3 sequence 2: T2 sequence 2

[4] = target: T1, "Elastikine" human IL-23 (single chain …); experiment: cell-based or functional assay
[5] = target: T4, non-tagged, non-linked native human IL-23p19/p40 coexpressed in SF9 cells (eBioscience CAT No. 34-8239) (human, UniProt P29460 23-328); experiment: cell-based or functional assay
T4 sequence 1: T2 sequence 1
T4 sequence 2: T2 sequence 2

Binder	Kd [1] [nM]	IC50 (pM), blocking of Ba/F3 cell proliferation [2] [pM]	Splenocyte assay IC50 (IL-17 production by mouse splenocytes) [3] [nM]	IC50 (pM), blocking of Ba/F3 cell proliferation [4]	IC50 (pM), blocking of Ba/F3 cell proliferation [5] [pM]
B1	0.0027				
B2		135	0.053		
B3		57	0.079		
B4		3000		22 pM and 18 pM	
B5		12	0.014		
B6	0.011				
B7		3	0.033		
B8		183	0.106		
B9		3	0.018		
B10		133	0.095		
B11	0.0068	193		4 pM and 3 pM	57
B12		48	0.092		
B13		5	0.024		
B14		8	0.034		
B15		16	0.027		
B16		11	0.037		
B17	0.00084	37		3 pM	2
B18	0.0074				
B19		141	0.155		

Reference: patent publication US20130039916A1 (Merck Sharp & Dohme, published 2013)
